Read-outs that look alike come from different tables or passages of the source.
Key:
MERS-RBD-mFc = MERS-RBD-mFc (MERS-CoV (isolate EMC/2012), UniProt K9N5Q8 367-606); assay: Octet BLI, MERS.mFc captured on the sensor, then mAb-1 applied
[1] = target: T1, MERS-CoV spike protein (EMC/2012), wt (MERS-CoV (isolate EMC/2012), UniProt K9N5Q8 18-1353); assay: cell-based or functional assay
[2] = target: T1, MERS-CoV spike protein (EMC/2012), wt; assay: cell-based or functional assay; remark: listed apart in the source
[3] = target: T1, MERS-CoV spike protein (EMC/2012), wt; assay: cell-based or functional assay; remark: listed apart in the source

| Binder | mAb-1 Binding (nm) (MERS-RBD-mFc) | IC50 against MERSpp [1] | IC50 against live virus (EMC2012) [1] | % Neutralization (.025 µg/ml), MERSpp infectivity [2] | Neutralization IC50 (M), MERSpp infectivity [2] | IC50 against MERSpp [3] | IC50 against live virus (EMC2012) [3] |
| --- | --- | --- | --- | --- | --- | --- | --- |
| H1H15208P (antibody, V domains shown) VH: EVQLVESGGDLVQPGGSLRLSCTASGFTFSNYEMNWVRQAPEKGLDWVSFISSSGGAIYYADSVKGRFTISRDNAKNSLYLQMNSLRAEDSAIYFCARSDSGGNSRYWGQGTLVTVSS VL: DIQMTQSPSSVSASVGDRVTVTCRASQDISNWLVWYQQKPGKAPKFLIYAASSLQSGVPSRFSGSGSGTDFTLTISSLQPEDFATYYCQQANSFPPTFGGGTKVEIK | 0.46 nm | 82.7 pM | 2410 pM |  |  |  |  |
| H1H15253P2 (antibody, V domains shown) VH: EVQLVESGGGLVQPGGSLRLSCVVSGFTSRNYAMSWVRQAPGKGLEWVSAISGSGGSTYYADSVKGRFTISRDNPKNTLYLQMNSLRAEDTALYYCAEDPGTSFDYWGQGTLVTVSS VL: not shown | 0.38 nm | 151 pM | 2420 pM |  |  |  |  |
| H1M15277N (antibody, V domains shown) V domain 1: EVQLLESGGGLVQPGGSLRLSCAASGFTFSSYAMSWVRQAPGKGLEWVSAISGRGGNTYYADSVKGRFTISRDNSKNTLFLQMNTLRAEDTAVYYCAKDRGFGFFDIWGRGTLATVSS V domain 2: not shown |  |  |  | 99% | 1.33e-10 M | 64.6 pM | 287 pM |
| H1H15237P2 (antibody, V domains shown) VH: EVQLVESGGGLVQPGGSLRLSCAASGFTSNSYPMSWVRQAPGKGLEWVSGISGRGGNTYYADSVKGRFTISRDNSKNTLYLQMNSLRVEDTAVYYCAETGTAFDYWGQGTLVTVSS VL: not shown | 0.39 nm | 66 pM | 1010 pM |  |  |  |  |
| H1H15211P (antibody, V domains shown) VH: EVQLVESGGGLVQPGGSLRLSCVVSGFTFSNYDMSWVRQAPGRGLEWVSAIRGSGFNTYYADSVKGRFTISRDNSKNTLYLQMNSLRAEDTAVYYCAKDGSIVSMDYWGQGTLVTVSS VL: not shown | 0.76 nm | 47.4 pM | 369 pM |  |  |  |  |
| H1H15215P (antibody, V domains shown) VH: EVQLVESGGGLVQPGGSLRLSCAASGFTFSTYGMSWVRQAPGKGLEWVSTIIGSGYNTYYSDSVKGRFTMSRDNSKSTLYLQMNSLRAEDTAVYYCTKEGPIIGTTNWGQGTLVTVSS VL: not shown | 0.56 nm | 192 pM | 2670 pM |  |  |  |  |
| H1H15177P (antibody, V domains shown) VH: EVQLVESGGGLVQPGGSLRLSCSASGFTFSSYDMSWVRQAPGKGLEWVSAIRGSGHTTYYADSVKGRFTISRDNSKNTLYLEMNSLRAEDTAVYYCVKDGSIVGFDPWGQGTLVTVSS VL: not shown | 0.6 nm | 45.7 pM | 629 pM |  |  |  |  |
| H1H15264P2 (antibody, V domains shown) VH: QLQLQESGPGLVKPSETLSLTCSVSGGSINNNNYYWGWIRQPPGRGLEWIGSFFYSGPTYYNPSLRSRVTISVDTSKNQFSLKLNSVTAADTAIYYCARQDGNYYPLFDYWGQGTLVTVSS VL: not shown | 0.41 nm | 134 pM | 2390 pM |  |  |  |  |
| H1H15233P2 (antibody, V domains shown) VH: EVQLVESGGGLVQPGGSLRLSCAASGFSFSSYGMNWVRQAPGKGLEWVSAISGRGGNTYSADSVKGRFTISRDNSKNTLFLQMNGLRAEDSAFYYCAKVGTYSSSSPFDYWGQGTLVTVSS VL: not shown | 0.46 nm | 87.3 pM | 1370 pM |  |  |  |  |
| H1M15280N (antibody, V domains shown) VH: EVQLLESGGGLVQPGGSLRLSCAASGFTFSSYAMSWVRQAPGKGLEWVSAISGSGSSTYYADSVKGRFTISRDNSKNTLFLQMNSLRAEDTAVYYCAEGGDVDFDYWGQGTLVTVSS VL: not shown |  |  |  | 97% | 1.76e-10 M | 111 pM | 763 pM |
| H1H15228P2 (antibody, V domains shown) VH: EVQLVESGGGLVQPGGSLRLSCAVFGFTFSGYAMSWVRQAPGKGLEWVSAISGGGGSTYYTDSVKGRFTISRDNSKNTLYLQMNSLRAEDTAVYYCASYWNNGMDVWGQGTTVTVSS VL: not shown | 0.52 nm | 97.5 pM | 898 pM |  |  |  |  |
| H1H15203P (antibody, V domains shown) VH: EVQLVESGGDLVQPGGSLRVSCAASGFTFSNYDMYWVRQAPGKGLEWVSVISGIGATTYYADSVKGRFTISRDNSKNTVFLQMNSLRAEDTAVYYCVKGGPIVATDYWGQGTLVTVSS VL: not shown | 0.51 nm | 76.5 pM | 826 pM |  |  |  |  |
| H1H15259P2 (antibody, V domains shown) VH: QVQLVESGGGVVQPGRSLRLSCAASGFTFSNYGIHWVRQAPGKGLEWVAGIYYDGSNKYYGDSVKGRFTISRDNSKNTLYLQMNSLRAEDTAVYYCARDRGNNHYYHNNPYYYYHGLDVWGQGTTVTVSS VL: not shown | 0.42 nm | 76.4 pM | 1630 pM |  |  |  |  |
| H2aM15279N (antibody, V domains shown) VH: EVQLLESGGGLVQTGGSLRLSCAASGFTFSNYAMSWVRQAPGKGLEWVSAISDRGGSIYYADSVKGRFTISRDNSKNTKYLQMDSLRAEDTAVYYCAQDRGFGVFDYWGQGTLVTVSS VL: DIQMTQSPSSLSASVGDRVTITCQASQDIGNYLNWFQQRPGKAPNLLIYGASNLETGVPSRFSGGGSGTDFTFTISSLQPEDIATYFCQQYDNLPFTFGPGTKVEIK |  |  |  | 97% | 1.38e-10 M | 93.9 pM | 825 pM |
| H1H15231P2 (antibody, V domains shown) VH: QLQLQESGPGLVKPSETLSLTCTVSGGSISSNTYYWGWIRQPPGKGLEWIGTIYYTGNTYYKSSLKSRVTISVDTSRNQFSLKLTSVTAADTAVYYCARQFADLNYVDYWGQGTLVTVSS VL: not shown | 0.5 nm | 102 pM | 920 pM |  |  |  |  |
| H1H15188P (antibody, V domains shown) VH: QVQLVQSGAEVKKPGSSVKVSCKASGGSFSVYAISWVRQAPGQGLEWMGGIIPIFGTANYAQKFQDRFTITTDESTSTAYMELSSLRSEDTAMYYCAREGDIVVLPAGKGGMDVWGQGTTVTVSS VL: DIVMTQSPLSLPVTPGEPASISCRSSQSLLHGNGYNYLDWYLQKPGQSPQLLIYLVSHRASGVPDRFSGSGSGTDFTLKISRVEAEDVGVYYCMQALQSPWTFGQGTKVEIK | 0.54 nm | 62 pM | 505 pM |  |  |  |  |
